± gives the standard deviation of the averaged measurements.
Test system: Saccharomyces cerevisiae
Test: protein stability index of tFT-peptide fusion (C-terminal peptide) (PSI (0-1 scale)); higher = more stable (slower turnover)
Details: temperature: 30 C
Description: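 MPS profiling in S. cerevisiae of the yeast C-terminome library: the last 12 aa of each annotated ORF are fused to the C-terminus of a sfGFP-mCherry timer, after a GGGS linker. Cells are FACS-sorted into 8 mCherry/sfGFP bins and deep-sequenced. PSI runs from 0 (unstable) to 1 (stable); wild type and das1Δ backgrounds, two technical replicates each.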

[1] = genetic background: das1 deletion

Sequence | protein stability index [1] | protein stability index (genetic background: wild type)
NKNLHGINTNEF [TRE1 C-terminal 12 aa] | 0.7067 ± 0.0039 | 0.6665 ± 0.0019
NLPFYKNQATLQ [YBR131C-A C-terminal 12 aa] | 0.6902 ± 0.005 | 0.707 ± 0.031
NLRADSFLQYPL [YDR029W C-terminal 12 aa] | 0.704 ± 0.0075 | 0.714 ± 0.021
NNKSIQKVNSPS [PAC2 C-terminal 12 aa] | 0.709 ± 0.0075 | 0.807 ± 0.035
NPHPRIQMKMSV [CDC21 C-terminal 12 aa] | 0.663 ± 0.035 | 0.624 ± 0.048
NPPERAKVNARS [RCR1 C-terminal 12 aa] | 0.675 ± 0.017 | 0.68 ± 0.042
NPSLRQSRIQGW [YGR161W-C C-terminal 12 aa] | 0.725 ± 0.005 | 0.731 ± 0.034
NPTALEKGIKDL [TRX3 C-terminal 12 aa] | 0.714 ± 0.025 | 0.69 ± 0.016
NPVVNRHIEHDD [COX13 C-terminal 12 aa] | 0.701 ± 0.011 | 0.707 ± 0.017
NRPGKSRRARRF [EBP2 C-terminal 12 aa] | 0.694 ± 0.026 | 0.668 ± 0.016
NSAGLLTLEYLS [TFC6 C-terminal 12 aa] | 0.696 ± 0.012 | 0.719 ± 0.036
NSKSNGNLFNSQ [NDD1 C-terminal 12 aa] | 0.72 ± 0.015 | 0.682 ± 0.015
NTSLLFKKWEGS [CEM1 C-terminal 12 aa] | 0.707 ± 0.01 | 0.702 ± 0.04
NTSTYGQTVQPV [YLR456W C-terminal 12 aa] | 0.6791 ± 0.00098 | 0.678 ± 0.041
NVSDLFQWQNAK [CAT8 C-terminal 12 aa] | 0.744 ± 0.017 | 0.683 ± 0.047
NVTAVKALNECF [SKI3 C-terminal 12 aa] | 0.6887 ± 0.0054 | 0.652 ± 0.026
NWDQHNPRNSIH [IRC10 C-terminal 12 aa] | 0.719 ± 0.013 | 0.78 ± 0.067
NYTLTVENKNKV [SPC3 C-terminal 12 aa] | 0.693 ± 0.051 | 0.734 ± 0.03
PAAIKQAIAANA [TRX1 C-terminal 12 aa] | 0.45 ± 0.014 | 0.489 ± 0.013
PAAVFTETLKHD [RPL4A C-terminal 12 aa] | 0.7 ± 0.016 | 0.7 ± 0.022
PAETTDEGWTMI [ATG26 C-terminal 12 aa] | 0.704 ± 0.023 | 0.68 ± 0.014

Sequence | protein stability index [1] | protein stability index (genetic background: wild type)
PDLPSTIKPLAD [BCH2 C-terminal 12 aa] | 0.693 ± 0.018 | 0.693 ± 0.0094
PIALTMFQRWAS [UPA1 C-terminal 12 aa] | 0.688 ± 0.01 | 0.498 ± 0.038
PIRRQFYLNSRQ [YML047W-A C-terminal 12 aa] | 0.701 ± 0.011 | 0.691 ± 0.017
PISPIGNAGSQI [MIN10 C-terminal 12 aa] | 0.696 ± 0.00098 | 0.6629 ± 0.0022
PISSKYTDGKKR [YPL205C C-terminal 12 aa] | 0.686 ± 0.012 | 0.695 ± 0.013
PLQRNSNVSHHL [MPH2 C-terminal 12 aa] | 0.69243 ± 0.00056 | 0.7038 ± 0.0037
PMGDIPVHLFKR [ACF4 C-terminal 12 aa] | 0.709 ± 0.013 | 0.729 ± 0.014
PNKDVEQGNDMV [AKR1 C-terminal 12 aa] | 0.6883 ± 0.00087 | 0.695 ± 0.05
PQDKPAGQSIWL [HRR25 C-terminal 12 aa] | 0.6795 ± 0.00075 | 0.6948 ± 0.0048
PREGRLDKTPTY [KAR9 C-terminal 12 aa] | 0.706 ± 0.008 | 0.704 ± 0.036
PRPACGVIGLTN [SOD1 C-terminal 12 aa] | 0.713 ± 0.03 | 0.726 ± 0.008
PSRVALVLALKE [GLC3 C-terminal 12 aa] | 0.6875 ± 0.0016 | 0.747 ± 0.029
PVIYGLPIKFVS [ESP1 C-terminal 12 aa] | 0.7014 ± 0.0052 | 0.389 ± 0.0063
QAERQLYDAYFH [YFL064C C-terminal 12 aa] | 0.732 ± 0.023 | 0.733 ± 0.038
QASSEKKWYKFW [COX20 C-terminal 12 aa] | 0.755 ± 0.018 | 0.6753 ± 0.0053
QGILMAKQYHIK [YSA1 C-terminal 12 aa] | 0.714 ± 0.018 | 0.702 ± 0.02
QGKTFYETVAKF [PST2 C-terminal 12 aa] | 0.77 ± 0.03 | 0.776 ± 0.017
QHQQENPNLIDI [YAP1802 C-terminal 12 aa] | 0.707 ± 0.024 | 0.734 ± 0.063
QIDDVNILKKNP [LIP2 C-terminal 12 aa] | 0.709 ± 0.009 | 0.702 ± 0.053
QIPPEVQKWYYV [PPA2 C-terminal 12 aa] | 0.71952 ± 0.00036 | 0.593 ± 0.02
QLEKEGEDGLDS [IES4 C-terminal 12 aa] | 0.6881 ± 0.005 | 0.666 ± 0.043

Sequence | protein stability index [1] | protein stability index (genetic background: wild type)
QLITLLSKHLRT [HMS2 C-terminal 12 aa] | 0.693 ± 0.017 | 0.676 ± 0.042
QLQLIMFGKKFK [AAC1 C-terminal 12 aa] | 0.698 ± 0.0099 | 0.717 ± 0.036
QPPAAAEGEAPK [BMH1 C-terminal 12 aa] | 0.712 ± 0.024 | 0.715 ± 0.026
QQQKVLAATLEK [HVG1 C-terminal 12 aa] | 0.73 ± 0.0088 | 0.656 ± 0.012
QRCCECASGNGC [YDR442W C-terminal 12 aa] | 0.6843 ± 0.0013 | 0.668 ± 0.035
QRTLVYKHKNDC [YLR285C-A C-terminal 12 aa] | 0.686 ± 0.0091 | 0.657 ± 0.0068
QRTQAICIDKKW [YJL135W C-terminal 12 aa] | 0.697 ± 0.014 | 0.6986 ± 0.0032
QVRDILDKLNII [PRB1 C-terminal 12 aa] | 0.703 ± 0.015 | 0.6877 ± 0.0033
RACPLRPKSLIA [YMR315W-A C-terminal 12 aa] | 0.655 ± 0.0078 | 0.667 ± 0.032
RAEIVIEEAGEL [CPR3 C-terminal 12 aa] | 0.683 ± 0.011 | 0.6789 ± 0.0032
RDLHVEHDNEFY [RPD3 C-terminal 12 aa] | 0.718 ± 0.019 | 0.662 ± 0.074
RDLNKLRSFQNF [YFL012W C-terminal 12 aa] | 0.724 ± 0.024 | 0.4914 ± 0.0021
RDREMVRELFRR [RSO55 C-terminal 12 aa] | 0.711 ± 0.017 | 0.692 ± 0.021
RFREEAYYSQFR [TCD2 C-terminal 12 aa] | 0.716 ± 0.013 | 0.672 ± 0.037
RHEGQRSKNSVK [GYP7 C-terminal 12 aa] | 0.686 ± 0.015 | 0.689 ± 0.019
RIEKYSDDVIPK [RIM13 C-terminal 12 aa] | 0.695 ± 0.018 | 0.722 ± 0.0089
RKEIRKQKRATF [MRPS28 C-terminal 12 aa] | 0.709 ± 0.059 | 0.734 ± 0.028
RKEKDPETYLDK [ERG8 C-terminal 12 aa] | 0.691 ± 0.023 | 0.684 ± 0.01
RKNGYDIMTLHE [CLB1 C-terminal 12 aa] | 0.719 ± 0.045 | 0.666 ± 0.027
RLGLDWKPDGMS [STD1 C-terminal 12 aa] | 0.725 ± 0.029 | 0.6963 ± 0.0059
RLIKHINDIFWK [GPI13 C-terminal 12 aa] | 0.717 ± 0.077 | 0.723 ± 0.092

Sequence | protein stability index [1] | protein stability index (genetic background: wild type)
RLKDGSVTCIKS [HMG1 C-terminal 12 aa] | 0.7299 ± 0.0059 | 0.7 ± 0.021
RNKKKRFSWVGY [LAA2 C-terminal 12 aa] | 0.699 ± 0.066 | 0.661 ± 0.044
RNYQKKGNKGCI [YCL076W C-terminal 12 aa] | 0.687 ± 0.024 | 0.679 ± 0.034
RPIFPFLIVLIS [YBR196C-A C-terminal 12 aa] | 0.16 ± 0.013 | 0.1088 ± 0.00092
RPPRTRIPRLRR [YKR047W C-terminal 12 aa] | 0.7572 ± 0.0045 | 0.708 ± 0.036
RPSTNDPTSCCS [YPT52 C-terminal 12 aa] | 0.697 ± 0.025 | 0.705 ± 0.03
RQRQLKSPQNVL [TYW3 C-terminal 12 aa] | 0.714 ± 0.017 | 0.696 ± 0.046
RRLDDLETTMRM [SFH1 C-terminal 12 aa] | 0.66 ± 0.015 | 0.662 ± 0.029
RRLKIQLCCISK [YHR180C-B C-terminal 12 aa] | 0.658 ± 0.019 | 0.6544 ± 0.004
RRQSPPGYYVIR [YLR311C C-terminal 12 aa] | 0.747 ± 0.0064 | 0.708 ± 0.027
RRSQLREHACVD [LDB7 C-terminal 12 aa] | 0.707 ± 0.013 | 0.7096 ± 0.0049
RRTQAQSRSRKA [PKR1 C-terminal 12 aa] | 0.675 ± 0.0088 | 0.706 ± 0.037
RSIIKLPVTKGL [YBL008W-A C-terminal 12 aa] | 0.6946 ± 0.0058 | 0.6596 ± 0.0024
RSPKGNSIIEEI [BTN2 C-terminal 12 aa] | 0.695 ± 0.026 | 0.655 ± 0.02
RSRNKALVSVST [VPS63 C-terminal 12 aa] | 0.6496 ± 0.0045 | 0.667 ± 0.049
RVPKKNGKLSKK [PDR5 C-terminal 12 aa] | 0.7012 ± 0.0033 | 0.704 ± 0.055
RYRNQIDDFDFS [IMP3 C-terminal 12 aa] | 0.71 ± 0.034 | 0.754 ± 0.097
SAAIGAQSGLYI [PBA1 C-terminal 12 aa] | 0.671 ± 0.021 | 0.67 ± 0.0091
SCQRILQELEKP [CAK1 C-terminal 12 aa] | 0.689 ± 0.0094 | 0.705 ± 0.055

Reference: the supplement of paper PMC10724198
